± gives the uncertainty stated by the source.
B1: COUP transcription factor 1, residues 83 to 159; numbered along this chain, P10589 (parent)
chain: HIECVVCGDKSSGKHYGQFTCEGCKSFFKRSVRRNLTYTCRANRNCPIDQHHRNQCQYCRLKKCLKVGMRREAVQRG

Variants of: B1
Assay: abundance fitness (aPCA) (normalised: wild type 0, dead -1); higher = more abundant; growth selection in yeast, the domain comes from the species named
Conditions: Homo sapiens

Variant	abundance fitness
R76H	0.094 ± 0.083
R76C	0.082 ± 0.068
R76P	-0.197 ± 0.07
G8W	-0.218 ± 0.11
T20F	-0.106 ± 0.15
T20Q	-0.382 ± 0.12
T20L	-0.084 ± 0.05
R44M	0.057 ± 0.052
R44C	-0.153 ± 0.073
N54P	0.006 ± 0.066
N54Y	-0.104 ± 0.088
T39R	-0.108 ± 0.068
T39C	-0.244 ± 0.29
I2Y	0.237 ± 0.32
I2M	-0.078 ± 0.1
Y38M	-0.059 ± 0.1
Y38A	-0.378 ± 0.11
Y38I	-0.24 ± 0.29
Y38T	-0.669 ± 0.17
Q57L	-0.221 ± 0.083
H52F	-0.068 ± 0.062

Variant	abundance fitness
H52G	0.035 ± 0.043
H52W	-0.263 ± 0.075
H52V	0.023 ± 0.042
G77N	-0.023 ± 0.093
G77P	-0.013 ± 0.071
G77K	0.101 ± 0.14
G77T	-0.016 ± 0.07
P47F	-0.023 ± 0.1
P47I	-0.137 ± 0.12
P47N	-0.679 ± 0.22
K66M	0.055 ± 0.043
K10R	-0.214 ± 0.049
N43K	0.018 ± 0.081
N43S	0.011 ± 0.064
N43R	0.012 ± 0.051
N43E	0.227 ± 0.065
N43D	0.278 ± 0.099
G13I	-0.199 ± 0.099
G13N	-0.068 ± 0.11
G13M	-0.049 ± 0.068
G13T	-0.115 ± 0.055

Variant	abundance fitness
C7N	-0.562 ± 0.18
R41Y	0.088 ± 0.15
R41W	0.145 ± 0.052
R41L	0.228 ± 0.054
R41T	-0.068 ± 0.082
N35H	-0.256 ± 0.26
C4L	-1.05 ± 0.14
Q18S	-0.028 ± 0.068
Q18T	-0.137 ± 0.25
C59M	-0.809 ± 0.13
C59Y	-0.789 ± 0.19
A73N	0.064 ± 0.065
A73R	-0.275 ± 0.038
A73S	-0.02 ± 0.039
D49M	-0.175 ± 0.11
D49R	-0.313 ± 0.056
D49V	-0.141 ± 0.052
D49Y	-0.261 ± 0.078
R53F	-0.495 ± 0.28
R53S	-0.178 ± 0.076
C24Y	-0.319 ± 0.16

Variant	abundance fitness
C24M	-1.08 ± 0.26
E72G	-0.258 ± 0.038
L36S	-0.147 ± 0.083
L36P	0.03 ± 0.089
L36E	0.162 ± 0.07
V5Y	0.393 ± 0.15
V5I	0.314 ± 0.12
V5Q	0.252 ± 0.2
V5S	0.149 ± 0.073
V74I	-0.292 ± 0.072
L61M	0.073 ± 0.042
L61S	-0.691 ± 0.07
K25F	0.168 ± 0.086
K25H	0.283 ± 0.1
H51A	0.039 ± 0.044
H51L	0.059 ± 0.044
T37V	0.044 ± 0.051
T37I	-0.038 ± 0.061
T37L	-0.057 ± 0.052
T37A	0.085 ± 0.051
